Data published in US20070161783A1 (published 2007).

Assays:
[1] = biological target: H2L3; experiment: SPR
[2] = biological target: H1L1; experiment: SPR
[3] = biological target: H2L4; experiment: SPR
[4] = biological target: H4L1; experiment: SPR
[5] = biological target: H3L1; experiment: SPR
[6] = biological target: H6L3; experiment: SPR
[7] = biological target: H1L4; experiment: SPR
[8] = biological target: H6L4; experiment: SPR
[9] = biological target: H1L3; experiment: SPR
[10] = biological target: H2L1; experiment: SPR
[11] = biological target: H3L2; experiment: SPR
[12] = biological target: H3L4; experiment: SPR
[13] = biological target: H4L4; experiment: SPR
[14] = biological target: H3L3; experiment: SPR
[15] = biological target: H4L3; experiment: SPR
[16] = biological target: H3.77_L3 I332E/G236A Hybrid
[17] = biological target: H3.77_L3 S239D/I332E/A330Y Hybrid
[18] = biological target: H3.77_L3 S239D/H268E Hybrid
[19] = biological target: H3.77_L3 I332E/H268E/G236A Hybrid
[20] = biological target: H3.77_L3 S239D/I332E Hybrid
[21] = biological target: H3.77_L3 S239D/I332E/G236A Hybrid
[22] = biological target: H3.77_L3 WT Hybrid
[23] = biological target: H3.77_L3 I332E/H268E Hybrid
[24] = biological target: FcγRIIIa (158V form) (human, UniProt P08637 17-208); experiment: AlphaScreen competition
Sequence of FcγRIIIa (158V form) (P08637 17-208 F176V): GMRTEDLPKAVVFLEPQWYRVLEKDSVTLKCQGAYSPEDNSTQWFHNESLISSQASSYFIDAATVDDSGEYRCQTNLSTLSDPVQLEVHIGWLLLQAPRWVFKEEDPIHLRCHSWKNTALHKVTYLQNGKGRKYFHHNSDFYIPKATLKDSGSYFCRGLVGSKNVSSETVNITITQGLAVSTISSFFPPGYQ

[25] = biological target: T1, extracellular domain of Ep-CAM (UniProt P16422 24-265, DIGylated (sites not given)); experiment: AlphaScreen competition
T1 chain: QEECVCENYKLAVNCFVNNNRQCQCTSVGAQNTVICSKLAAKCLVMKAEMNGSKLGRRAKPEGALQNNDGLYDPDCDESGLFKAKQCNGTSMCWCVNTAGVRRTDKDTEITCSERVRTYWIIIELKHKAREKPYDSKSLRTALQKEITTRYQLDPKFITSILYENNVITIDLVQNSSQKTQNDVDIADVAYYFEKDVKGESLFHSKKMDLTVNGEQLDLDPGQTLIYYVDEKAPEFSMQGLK

B1: EpCAM (Fc fusion)
chain: QEECVCENYKLAVNCFVNNNRQCQCTSVGAQNTVICSKLAAKCLVMKAEMNGSKLGRRAKPEGALQNNDGLYDPDCDESGLFKAKQCNGTSMCWCVNTAGVRRTDKDTEITCSERVRTYWIIIELKHKAREKPYDSKSLRTALQKEITTRYQLDPKFITSILYENNVITIDLVQNSSQKTQNDVDIADVAYYFEKDVKGESLFHSKKMDLTVNGEQLDLDPGQTLIYYVDEKAPEFSMQGLK
Kd [1]: 0.063 µM | Kd [2]: 0.0778 µM | Kd [3]: 0.0666 µM | Kd [4]: 6.6 µM | Kd [5]: 0.385 µM | Kd [6]: 4.8 µM | Kd [7]: 0.0589 µM | Kd [8]: 5.2 µM | Kd [9]: 0.0541 µM | Kd [10]: 0.0754 µM | Kd [11]: 0.615 µM | Kd [12]: 0.335 µM | Kd [13]: 3 µM | Kd [14]: 0.292 µM | Kd [15]: 1.31 µM

B2: FcgRIIb (receptor)
chain: TPAAPPKAVLKLEPQWINVLQEDSVTLTCRGTHSPESDSIQWFHNGNLIPTHTQPSYRFKANNNDSGEYTCQTGQTSLSDPVHLTVLSEWLVLQTPHLEFQEGETIVLRCHSWKDKPLVKVTFFQNGKSKKFSRSDPNFSIPQANHSHSGDYHCTGNIGYTLYSSKPVTITVQAP
Kd [16]: 0.557 µM | Kd [17]: 0.144 µM | Kd [18]: 0.0815 µM | Kd [19]: 0.154 µM | Kd [20]: 0.142 µM | Kd [21]: 0.146 µM | Kd [22]: 0.635 µM | Kd [23]: 0.117 µM

B3: R131 FcgRIIa (receptor)
chain: QAAAPPKAVLKLEPPWINVLQEDSVTLTCQGARSPESDSIQWFHNGNLIPTHTQPSYRFKANNNDSGEYTCQTGQTSLSDPVHLTVLSEWLVLQTPHLEFQEGETIMLRCHSWKDKPLVKVTFFQNGKSQKFSRLDPTFSIPQANHSHSGDYHCTGNIGYTLFSSKPVTITVQVPSMGSSSPMG
Kd [16]: 0.0544 µM | Kd [17]: 0.0889 µM | Kd [18]: 0.0427 µM | Kd [20]: 0.0789 µM | Kd [21]: 0.0137 µM | Kd [22]: 0.413 µM | Kd [23]: 0.0861 µM

B4: 17-1A H0 (antibody)
chain: QVQLQQSGAELVRPGTSVKVSCKASGYAFTNYLIEWVKQRPGQGLEWIGVINPGSGGTNYNEKFKGKATLTADKSSSTAYMQLSSLTSDDSAVYFCARDGPWFAYWGQGTLVTVSA
IC50 [24]: 0.0327 µM | IC50 [25]: 0.333 µM
